Tested on: HCT116
Assay: MTT cytotoxicity test on HCT116
Format: cell-based, human
Conditions: continuous incubation over 72 h

B1: Ex. 3^a: fusion protein SEQ. No. 3: (TRAIL121-281)-MMP-UROKIN-(SEQ. No. 35, synthetic 15-amino acids lytic peptide) (protein)
chain: RVAAHITGTRGRSNTLSSPNSKNEKALGRKINSWESSRSGHSFLSNLHLRNGELVIHEKGFYYIYSQTYFRFQEEIKENTKNDKQMVQYIYKYTSYPDPILLMKSARNSCWSKDAEYGLYSIYQGGIFELKENDRIFVSVTNEHLIDMDHEASFFGAFLVGPLGLAGRVVRKLLLRLLKKLLRLLK
modifications: synthesized, fusion protein comprising: a fragment of TRAIL protein, synthetic 15-amino acids lytic peptid and cleavage site sequences recognized by urokinase and metalloprotease.
  IC50: 1.8785 µg/mL

From patent US20140377216A1, “ANTICANCER FUSION PROTEIN” (ADAMED SP. Z.O.O., priority 2011, published 2014)
